# Assay results: US20240376151A1, “STAPLED PEPTIDES AND METHODS THEREOF” (FOG PHARMACEUTICALS, INC., priority 2022, published 2024)
# Numbered stars: 1 amine (or outer) side, 2 acyl side, 3 side chain; on linkers, the order of the positions; unused ones are H or OH. Bridge positions count the residues as written; N and C are the ends. Ends that are not written are not given here. Phenylene(1,4-NHCOCH2)2 = O=C(C[*:1])Nc1ccc(NC(=O)C[*:2])cc1
# Target: T1, CHIP (Homo sapiens, UniProt Q9UNE7)
# T1 construct: N-term truncated CHIP (also known as STUB1, Uniprot ID: Q9UNE7, residues 23-303); made in house; host or cells: E. coli BL21 CodonPlus
# T1 sequence (Q9UNE7 23-303): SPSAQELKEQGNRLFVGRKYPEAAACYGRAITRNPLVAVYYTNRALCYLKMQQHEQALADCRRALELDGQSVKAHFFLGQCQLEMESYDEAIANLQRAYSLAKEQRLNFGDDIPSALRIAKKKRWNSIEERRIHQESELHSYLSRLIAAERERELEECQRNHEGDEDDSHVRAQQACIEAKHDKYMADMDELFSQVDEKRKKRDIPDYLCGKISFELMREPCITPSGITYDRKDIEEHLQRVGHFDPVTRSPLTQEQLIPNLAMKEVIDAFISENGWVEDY
# Assay: Naive Library Presenter Screening (phage, NGS), CHIP
# Assay type: binding
# Details: for interaction data, BLANK: Blank = Media only
# Procedure: To conduct phage library screening, previously described procedures were utilized in accordance with the present disclosure.
# Next-generation sequencing was performed as described in accordance with the present disclosure.
# Hit ID and Clustering is performed according to a described procedure in accordance with the present disclosure.
# [1] = CHIP target concentration 10 nM
# [2] = CHIP target concentration 30 nM
# [3] = CHIP target concentration 100 nM
# [4] = CHIP target concentration 300 nM
# [5] = CHIP target concentration 1000 nM, first column
# [6] = CHIP target concentration 1000 nM, second column
# [7] = CHIP clusters (C83, C84), first column
# [8] = CHIP clusters (C83, C84), second column
# [9] = CHIP clusters (C83, C84), target concentration 10 nM
# [10] = CHIP clusters (C83, C84), target concentration 30 nM
# [11] = CHIP clusters (C83, C84), target concentration 100 nM
# [12] = CHIP clusters (C83, C84), target concentration 300 nM
# [13] = CHIP clusters (C83, C84), target concentration 1000 nM, first column
# [14] = CHIP clusters (C83, C84), target concentration 1000 nM, second column
Sequence,interaction data at Target Concentration 10 [1],interaction data at Target Concentration 30 [2],interaction data at Target Concentration 100 [3],interaction data at Target Concentration 300 [4],interaction data at Target Concentration 1000 [5],interaction data at Target Concentration 1000 [6],"interaction data, BLANK [7]","interaction data, BLANK [8]",interaction data at Target Concentration 10 [9],interaction data at Target Concentration 30 [10],interaction data at Target Concentration 100 [11],interaction data at Target Concentration 300 [12],interaction data at Target Concentration 1000 [13],interaction data at Target Concentration 1000 [14]
"PCYSAWIVCSD (linker 2-9 via Phenylene(1,4-NHCOCH2)2 (inferred))",4,81,123,444,549,468,,,,,,,,
"DPANHICHYAAHICDVD (DPANHICHYAAHICDVD-NH2; linker 7-14 via Phenylene(1,4-NHCOCH2)2 (inferred))",,,,,,,0,0,0,0,3,15,6,49
"PCWNAWLYCSN (linker 2-9 via Phenylene(1,4-NHCOCH2)2 (inferred))",0,0,11,105,155,58,,,,,,,,
"DPAQDNCHYAAHICMVD (DPAQDNCHYAAHICMVD-NH2; linker 7-14 via Phenylene(1,4-NHCOCH2)2 (inferred))",,,,,,,0,0,0,0,0,47,25,57
"DPAFERCQLAAAFCYDS (linker 7-14 via Phenylene(1,4-NHCOCH2)2 (inferred))",,,,,,,0,0,0,0,2,15,60,47
"DPAFEVCQFAAATCSSN (linker 7-14 via Phenylene(1,4-NHCOCH2)2 (inferred))",,,,,,,0,0,0,0,8,10,6,30
"DPAFWQCQFAAATCAHY (linker 7-14 via Phenylene(1,4-NHCOCH2)2 (inferred))",,,,,,,0,0,0,0,19,16,70,44
"PCFEAWVMCEI (linker 2-9 via Phenylene(1,4-NHCOCH2)2 (inferred))",4,83,121,285,375,297,,,,,,,,
"DPAFDACQFAAAMCDHQ (linker 7-14 via Phenylene(1,4-NHCOCH2)2 (inferred))",,,,,,,0,0,0,30,23,39,80,248
"DPALWNCQYAAVMCTQL (linker 7-14 via Phenylene(1,4-NHCOCH2)2 (inferred); not fully specified (C-terminus))",,,,,,,0,0,0,0,0,14,34,75
"DPAFEYCQWAAATCQMD (linker 7-14 via Phenylene(1,4-NHCOCH2)2 (inferred))",,,,,,,0,0,0,12,0,43,46,90
"DPAVHNCSQAASICDVD (linker 7-14 via Phenylene(1,4-NHCOCH2)2 (inferred); not fully specified (C-terminus))",,,,,,,0,0,0,0,0,22,9,39

# Now from value to sequence:
interaction data at Target Concentration 10 [1],interaction data at Target Concentration 30 [2],interaction data at Target Concentration 100 [3],interaction data at Target Concentration 300 [4],interaction data at Target Concentration 1000 [5],interaction data at Target Concentration 1000 [6],"interaction data, BLANK [7]","interaction data, BLANK [8]",interaction data at Target Concentration 10 [9],interaction data at Target Concentration 30 [10],interaction data at Target Concentration 100 [11],interaction data at Target Concentration 300 [12],interaction data at Target Concentration 1000 [13],interaction data at Target Concentration 1000 [14],Sequence
0,134,286,457,563,538,,,,,,,,,"PCYSAWITCES (linker 2-9 via Phenylene(1,4-NHCOCH2)2 (inferred))"
0,1,5,9,7,12,,,,,,,,,"ICYTAWLECE (linker 2-9 via Phenylene(1,4-NHCOCH2)2 (inferred))"
,,,,,,0,0,0,0,0,51,41,54,"DPAFFECVRAASICMVD (linker 7-14 via Phenylene(1,4-NHCOCH2)2 (inferred))"
1,2,13,16,21,20,,,,,,,,,"ICYNARLECE (linker 2-9 via Phenylene(1,4-NHCOCH2)2 (inferred))"
,,,,,,0,0,0,0,4,13,31,76,"DPAFDRCQWAAALCMMN (linker 7-14 via Phenylene(1,4-NHCOCH2)2 (inferred))"
1,3,13,25,22,28,,,,,,,,,"ICYSAWLECE (linker 2-9 via Phenylene(1,4-NHCOCH2)2 (inferred))"
,,,,,,0,0,0,0,0,22,27,19,"DPAFVRCQFAAASCHTI (linker 7-14 via Phenylene(1,4-NHCOCH2)2 (inferred))"
,,,,,,0,0,0,0,22,19,20,62,"DPAYDVCHFAAHICWID (linker 7-14 via Phenylene(1,4-NHCOCH2)2 (inferred))"
0,0,4,124,194,145,,,,,,,,,"PCWEAWLWCSM (linker 2-9 via Phenylene(1,4-NHCOCH2)2 (inferred))"
,,,,,,1,0,8,3,160,86,331,323,"DPAFWVCQYAAAMCQDV (linker 7-14 via Phenylene(1,4-NHCOCH2)2 (inferred))"
